Measured values published in article PMC11246235.

Target: T1, CST (Ctc1/Stn1/Ten1), His6-MBP tag of Ctc1 cleaved off (human), Q2NKJ3
T1 chain 1: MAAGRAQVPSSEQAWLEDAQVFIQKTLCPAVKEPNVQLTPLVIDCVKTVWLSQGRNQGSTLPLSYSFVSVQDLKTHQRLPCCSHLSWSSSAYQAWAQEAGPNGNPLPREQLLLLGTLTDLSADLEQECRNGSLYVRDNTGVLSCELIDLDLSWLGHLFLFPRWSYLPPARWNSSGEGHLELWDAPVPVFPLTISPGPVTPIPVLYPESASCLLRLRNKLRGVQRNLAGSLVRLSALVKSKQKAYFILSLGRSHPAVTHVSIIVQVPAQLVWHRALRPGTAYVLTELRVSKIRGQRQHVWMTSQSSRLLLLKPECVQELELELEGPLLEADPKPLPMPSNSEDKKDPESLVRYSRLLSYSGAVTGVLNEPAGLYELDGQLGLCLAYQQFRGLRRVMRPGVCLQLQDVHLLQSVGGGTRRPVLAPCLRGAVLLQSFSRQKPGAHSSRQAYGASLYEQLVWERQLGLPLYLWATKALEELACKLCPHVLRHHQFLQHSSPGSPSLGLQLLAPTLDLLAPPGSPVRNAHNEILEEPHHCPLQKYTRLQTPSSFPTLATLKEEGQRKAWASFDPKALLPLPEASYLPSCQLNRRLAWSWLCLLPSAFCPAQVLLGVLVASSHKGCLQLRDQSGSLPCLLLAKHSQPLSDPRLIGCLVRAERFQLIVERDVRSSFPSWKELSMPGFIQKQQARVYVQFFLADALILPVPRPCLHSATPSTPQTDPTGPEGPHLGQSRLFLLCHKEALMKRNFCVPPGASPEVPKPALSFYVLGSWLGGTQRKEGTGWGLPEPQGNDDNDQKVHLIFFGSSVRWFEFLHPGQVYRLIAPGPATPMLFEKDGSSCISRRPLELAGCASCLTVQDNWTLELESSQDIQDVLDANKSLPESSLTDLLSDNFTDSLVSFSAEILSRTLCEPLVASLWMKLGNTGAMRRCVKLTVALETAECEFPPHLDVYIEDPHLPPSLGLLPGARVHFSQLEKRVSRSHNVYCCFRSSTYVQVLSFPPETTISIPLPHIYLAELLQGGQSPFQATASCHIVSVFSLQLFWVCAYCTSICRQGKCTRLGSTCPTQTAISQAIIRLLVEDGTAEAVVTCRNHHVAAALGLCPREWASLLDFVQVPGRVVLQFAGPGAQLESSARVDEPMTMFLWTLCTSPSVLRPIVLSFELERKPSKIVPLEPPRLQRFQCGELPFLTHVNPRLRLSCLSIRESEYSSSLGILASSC
T1 chain 2: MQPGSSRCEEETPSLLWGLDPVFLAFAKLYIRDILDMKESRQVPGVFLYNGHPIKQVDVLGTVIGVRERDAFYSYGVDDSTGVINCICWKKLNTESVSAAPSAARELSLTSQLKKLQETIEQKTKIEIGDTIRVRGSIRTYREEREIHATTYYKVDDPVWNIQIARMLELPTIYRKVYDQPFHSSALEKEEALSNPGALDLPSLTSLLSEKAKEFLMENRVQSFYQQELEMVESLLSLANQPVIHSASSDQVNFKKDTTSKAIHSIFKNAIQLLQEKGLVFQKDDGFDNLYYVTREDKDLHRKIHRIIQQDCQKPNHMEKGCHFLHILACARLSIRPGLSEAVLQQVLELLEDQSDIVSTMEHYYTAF
T1 chain 3: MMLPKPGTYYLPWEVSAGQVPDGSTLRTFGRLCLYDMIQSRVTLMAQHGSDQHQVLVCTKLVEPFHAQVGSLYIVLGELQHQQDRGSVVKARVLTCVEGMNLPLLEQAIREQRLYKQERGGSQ
Experiment: negative-stain EM
Conditions: remark: other sources report otherwise

- stoichiometry N: 2
B1: CST (Ctc1/Stn1/Ten1), His6-MBP tag of Ctc1 cleaved off, Q2NKJ3 1-1217; Q9H668 1-368; Q86WV5 1-123 (complex)
chain 1: T1 chain 1
chain 2: T1 chain 2
chain 3: T1 chain 3
